Experimental data reported in the RNAGym collection of RNA variant scans (doi:10.7554/elife.80360).

B1: Hairpin Ribozyme (parent)
chain: GUCCUCUUUCACGUGCGCGUGAAAGAGAGAAGUGAACCAGAGAAACACACGUUGUGGUAUAUUACCUGGUA

Variants of: B1
Test: self-cleavage, relative activity (ratio to wild type); higher = more cleavage; co-transcriptional

Row | Variant | self-cleavage
1 | C4G G57U | 0.151
2 | A44U A71G | 0.293
3 | G29U G40U | 0.147
4 | C3U A22U | 0.395
5 | G27A C65G | 0.161
6 | U14C U33C | 0.0775
7 | U20A G25A | 0.453
8 | A39G A47U | 0.134
9 | G27U A61G | 0.171
10 | C4U A43C | 0.128
11 | G27A A36G | 0.42
12 | C3U A61U | 0.227
13 | G13A A43G | 0.0659
14 | A39C A41G | 0.591
15 | C10U U67C | 0.206
16 | G21A A71U | 0.611
17 | G19U U63A | 0.166
18 | U8G G15A | 0.897
19 | G51U U70G | 0.887
20 | G29C G51A | 0.125
21 | G15A A71G | 0.943
22 | U9C A61C | 0.183
23 | G40A C65A | 0.315
24 | A36C A59G | 0.203

Row | Variant | self-cleavage
25 | A44G G69A | 0.0936
26 | U53C G57U | 0.234
27 | U8C A44G | 0.0935
28 | C4G A35U | 0.157
29 | A30C A44U | 0.106
30 | A22U G29A | 0.13
31 | G13A A30U | 0.113
32 | C12U U63A | 0.249
33 | G34U C37A | 0.946
34 | U2G G15C | 0.342
35 | C18A G29C | 0.118
36 | A44C U55C | 0.172
37 | C12A U55A | 0.288
38 | G25U A45U | 0.162
39 | G40A U60A | 0.271
40 | C12A G54A | 0.485
41 | G19C U55C | 0.271
42 | C12A G15C | 0.837
43 | A44G U70C | 0.262
44 | A39U G69U | 0.151
45 | U20A A49C | 0.131
46 | C12A C66A | 0.259
47 | A30U U53A | 0.138
48 | A24U U55A | 0.186

Row | Variant | self-cleavage
49 | G1U A22G | 0.101
50 | G56A U70C | 0.247
51 | C12A C50U | 0.399
52 | A23U C66G | 0.222
53 | A26C A49U | 0.239
54 | G25U A28U | 0.509
55 | G19A A43G | 0.16
56 | C3G G21A | 0.173
57 | U33C A59G | 0.083
58 | A36G A47C | 0.372
59 | C12U G42A | 0.149
60 | A26G A64U | 0.271
61 | A36U A47U | 0.141
62 | G13C G27U | 0.19
63 | G40U U53G | 0.151
64 | U20A A41G | 0.681
65 | A47C G56C | 0.161
66 | G56U U63G | 0.0375
67 | A35G U52C | 1.29
68 | A26U G27A | 0.228
69 | C12G G56C | 0.154
70 | U14G C16U | 1.06
71 | U52G U63G | 0.134
72 | A30G G69A | 0.12

Row | Variant | self-cleavage
73 | A30C C48G | 0.126
74 | U8C U9C | 0.275
75 | U33A G34U | 0.134
76 | U5G A24C | 0.273
77 | U9C G34U | 1.09
78 | A11U G42C | 0.271
79 | G32U C38U | 0.0994
80 | C18A G57A | 0.209
81 | A36G U60G | 0.62
82 | G15C G42C | 0.369
83 | C37G U67C | 0.167
84 | C16A G40A | 0.28
85 | A43U G68U | 0.223
86 | U8C U60A | 0.554
87 | A47C C48U | 0.0858
88 | A28G A39C | 0.748
89 | A24U C48A | 0.0466
90 | U7C A31G | 0.525
91 | C12A G56U | 0.159
92 | U52G G68U | 0.136
93 | G1A C37G | 0.187
94 | G17U A45G | 0.0728
95 | C12A A71G | 0.848
96 | C16U A30G | 0.157

Row | Variant | self-cleavage
97 | U14A G29A | 0.227
98 | A24G U63C | 0.0931
99 | U33A A64U | 0.21
100 | A22U A61U | 0.198
101 | U5C A43C | 0.193
102 | G15U G19C | 1
103 | C10U G68U | 0.189
104 | G17A G40U | 0.203
105 | A44G A61U | 0.189
106 | G42U U67G | 0.127
107 | A61U G68C | 0.191
108 | G1U U14G | 0.184
109 | A44C A71U | 0.152
110 | U2G C12U | 0.321
111 | A22C A64C | 0.101
112 | U7C A35U | 0.523
113 | A24G A41G | 0.78
114 | G15U G40C | 0.0954
115 | C50U U53A | 0.335
116 | A49G U53C | 0.363
117 | U14C G57C | 0.0473
118 | G54C C66U | 0.254
119 | G27C A71U | 0.178
120 | G15U G21U | 0.868

Row | Variant | self-cleavage
121 | U2G U62A | 0.0977
122 | G17U G32A | 0.122
123 | G19C A44G | 0.0921
124 | U14G G54U | 0.491
125 | G1C U33A | 0.0439
126 | G29A A41C | 0.053
127 | C3A C37U | 0.543
128 | G34A A36C | 0.956
129 | A47U G51A | 0.157
130 | G19A G54C | 0.403
131 | U9G G32A | 0.128
132 | A35C C48A | 0.103
133 | G32C A41U | 0.101
134 | G17C G29A | 0.12
135 | C16U G29U | 0.0547
136 | A23G G29C | 0.123
137 | G1C A61U | 0.126
138 | U52A U58G | 0.678
139 | A11U G51U | 0.805
140 | G40A A61G | 0.139
141 | G17A C66A | 0.26
142 | U58A A61G | 0.27
143 | A35G G56C | 0.0996
144 | G1C C12U | 0.213

Row | Variant | self-cleavage
145 | G40U A61G | 0.186
146 | U53G A59C | 0.166
147 | C37U A45U | 0.11
148 | U62G G68U | 0.257
149 | C38U A41C | 0.619
150 | G13A A23G | 0.767
151 | A44C A45G | 0.208
152 | G1C A31U | 0.163
153 | A22C G25C | 0.182
154 | A22C G27U | 0.411
155 | C16A G25C | 0.499
156 | G56C U62A | 0.263
157 | G17A G34A | 1.26
158 | G1A C6G | 0.193
159 | C6U A43G | 0.151
160 | A22C G34C | 1.22
161 | U8A A30U | 0.0488
162 | U2C G21A | 0.0868
163 | A36G G56C | 0.0421
164 | C48G U67G | 0.113
165 | A30G G42U | 0.0793
166 | A22U C50A | 0.211
167 | A31C G68A | 0.152
